According to ChEMBL document CHEMBL1275444, “Fitness trade-offs in blaTEM evolution” (2008):

Substrate: CC1(C)S[C@@H]2[C@H](NC(=O)[C@H](N)c3ccccc3)C(=O)N2[C@H]1C(=O)O
Details: Escherichia coli
Description: Ratio of Kcat to Km for Escherichia coli Beta-Lactamase TEM-1

B1: Beta-lactamase TEM-1 (Escherichia coli), Q4GY26 (protein)
chain: MSIQHFRVALIPFFAAFCLPVFAHPETLVKVKDAEDQLGARVGYIELDLNSGKILESFRPEERFPMMSTFKVLLCGAVLSRVDAGQEQLGRRIHYSQNDLVEYSPVTEKHLTDGMTVRELCSAAITMSDNTAANLLLTTIGGPKELTAFLHNMGDHVTRLDRWEPELNEAIPNDERDTTMPAAMATTLRKLLTGELLTLASRQQLIDWMEADKVAGPLLRSALPAGWFIADKSGAGERGSRGIIAALGPDGKPSRIVVIYTTGSQATMD
In the case of B1, the kcat/Km is reported as 2.8 ×10⁷ /M/s.
